The target in the test is P301S human tau, T34 isoform (1N4R), of P301S tg mice (line PS19) (human) (UniProt P10636). Kind of test: cell-based or functional assay.
Chain of P301S human tau, T34 isoform (1N4R), of P301S tg mice (line PS19) (human) (P10636 other isoform, or with tags, fused parts or gaps P301S P301S P301S P301S): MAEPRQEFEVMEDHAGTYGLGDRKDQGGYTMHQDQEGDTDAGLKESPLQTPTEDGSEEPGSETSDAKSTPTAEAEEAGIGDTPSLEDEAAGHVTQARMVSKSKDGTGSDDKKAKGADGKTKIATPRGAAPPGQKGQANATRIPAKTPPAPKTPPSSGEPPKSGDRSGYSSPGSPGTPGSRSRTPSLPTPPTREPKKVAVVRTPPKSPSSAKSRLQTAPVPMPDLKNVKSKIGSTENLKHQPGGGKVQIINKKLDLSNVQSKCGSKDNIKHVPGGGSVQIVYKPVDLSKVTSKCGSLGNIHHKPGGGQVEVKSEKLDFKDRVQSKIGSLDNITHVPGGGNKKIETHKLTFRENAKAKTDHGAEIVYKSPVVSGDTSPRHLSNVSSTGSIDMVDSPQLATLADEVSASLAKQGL

B1: HJ8.5 (antibody, V domains shown)
VH: EVKVEESGGGLVQPGGSMKLSCVVSGFTFSNYWVNWVRQSPEKGLEWVAQIRLKSDNYATHYEESVKGRFTISRDDSKSSVYLQMNNLRAEDSGIYYCTNWEDYWGQGTTLTVSS
VL: DIVLTQSPASLAVSLGQRATISCRASQSVSTSRYSYIHWYQQKPGQPPKLLIKYASNLESGVPARFSGSGSGTDFTLNIHPLEEEDAATYYCHHSWEIPLTFGAGTKLELK
For B1, the antibody concentration that significantly blocked uptake and seeding activity was found to be 0.5 µg/mL; the lowest antibody concentration that blocked seeding activity (titration against a fixed amount of P301S brain lysate) turned out to be 0.25 µg/mL.

(Values after patent US20180037641A1.)
